The text below walks through data of patent US10190113B2, “Methods and compositions for segregating target nucleic acid from mixed nucleic acid samples” (FLIR DETECTION, INC., priority 2011, dated 2019).

The test system of test [1] is sera binding to N6 mA coated ELISA plates. In words: Competitive ELISA of antisera on N6 mA-BSA coated wells. The arrangement: species or system mice. Particulars: 100 ng of competitor. The method, then:
Competitive ELISA were performed as previously described. Itoh, K., M. Mizugaki, and N. Ishida, Preparation of a monoclonal antibody specific for 1-methyladenosine and its application for the detection of elevated levels of 1-methyladenosine in urines from cancer patients. Jpn J Cancer Res, 1988. 79(10): p. 1130-8. Wells were coated with the N6 mA-BSA conjugate ensuring that binding activity was not directed against the KLH component of the immunogen. Specificity was determined by incubating the antisera with either N6-Methyl-2-deoxyadenosine (specific inhibitor for the desired activity) or 2-Deoxyadenosine 5-monophosphate and adding it to the coated well. When antisera bound to the coated well, no competition was present.

Test [2] concerns nucleic acid recognition or cleavage site. Particulars: mutant restriction enzyme relative to wild type; cited from earlier work.

Consider `CNc1ncnc2c1ncn2[C@H]1C[C@H](O)[C@@H](CO)O1` [N6 mA, N6-Methyl-2-deoxyadenosine], for which, in test [1], the “inhibition of sera binding to N6 mA coated ELISA plates” value stood at 50%.

B1: BamHI G91S: BamHI restriction enzyme with mutation G91S (protein, UniProt P23940 1-213, looked up, variant G91S)
Type II restriction enzyme …: MEVEKEFITDEAKELLSKDKLIQQAYNEVKTSICSPIWPATSKTFTINNTEKNCNGVVPIKELCYTLLEDTYNWYREKPLDILKLEKKKGSPIDVYKEFIENSELKRVGMEFETGNISSAHRSMNKLLLGLKHGEIDLAIILMPIKQLAYYLTDRVTNFEELEPYFELTEGQPFIFIGFNAEAYNSNVPLIPKGSDGMSKRSIKKWKDKVENK
Consider B1, for which, in test [2], the “% of WT cleavage activity” value is recorded as 1%.

B2: EcoRV Q69E: EcoRV restriction enzyme with mutation Q69E (protein, UniProt P04390 2-245, looked up, variant Q69E)
Type II restriction enzyme …: SLRSDLINALYDENQKYDVCGIISAEGKIYPLGSDTKVLSTIFELFSRPIINKIAEKHGYIVEEPKQENHYPDFTLYKPSEPNKKIAIDIKTTYTNKENEKIKFTLGGYTSFIRNNTKNIVYPFDQYIAHWIIGYVYTRVATRKSSLKTYNINELNEIPKPYKGVKVFLQDKWVIAGDLAGSGNTTNIGSIHAHYKDFVEGKGIFDSEDEFLDYWRNYERTSQLRNDKYNNISEYRNWIYRGRK
For the molecule B2, in test [2], the “% of WT cleavage activity” value is listed as <0.1%.

B3: EcoRV N70D: EcoRV restriction enzyme with mutation N70D (protein, UniProt P04390 2-245, looked up, variant N70D)
Type II restriction enzyme …: SLRSDLINALYDENQKYDVCGIISAEGKIYPLGSDTKVLSTIFELFSRPIINKIAEKHGYIVEEPKQQDHYPDFTLYKPSEPNKKIAIDIKTTYTNKENEKIKFTLGGYTSFIRNNTKNIVYPFDQYIAHWIIGYVYTRVATRKSSLKTYNINELNEIPKPYKGVKVFLQDKWVIAGDLAGSGNTTNIGSIHAHYKDFVEGKGIFDSEDEFLDYWRNYERTSQLRNDKYNNISEYRNWIYRGRK
Take B3: the “% of WT cleavage activity” value in test [2] was 0%.
